Laboratory results as given in article PMC6048597 (Biochemistry, 2018).

Experiments:
Experiment in all cases: ITC
hKDM5B PHD V346A = target: T1, hKDM5B PHD V346A (human, UniProt Q9UGL1 305-366, V346A)
T1 sequence (looked up): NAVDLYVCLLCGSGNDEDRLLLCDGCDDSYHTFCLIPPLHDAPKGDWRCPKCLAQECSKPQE

[1] = target: T2, hBAZ2A PHD finger (residues 1673–1728), wild type (human, UniProt Q9UIF9 1673-1728)
T2 sequence (looked up): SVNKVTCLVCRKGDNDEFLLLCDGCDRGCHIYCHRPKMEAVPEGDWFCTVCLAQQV

hAIRE PHD C310L = target: T3, hAIRE PHD C310L (human, UniProt O43918 294-343, C310L)
T3 chain (looked up): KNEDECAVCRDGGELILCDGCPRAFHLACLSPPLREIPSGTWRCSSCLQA

Binder: ARTKQTARKSTW [Histone H3 residues 1–11 (H3-1-11W)]
- binding result (hKDM5B PHD V346A): binds
- binding result [1]: binds
- fold increase in affinity against the wild type AIRE PHD (hAIRE PHD C310L): ~15 fold
